For 6 molecules, ELISA results are on record in patent US20190153103A1.

The experiment concerns the target recombinant human BMPR-1A/ALK-3-Fc Chimera (R&D systems Catalog: 315-BR) (human) (UniProt P36894). Put plainly: ELISA.

Chain of recombinant human BMPR-1A/ALK-3-Fc Chimera (R&D systems Catalog: 315-BR) (human) (P36894 24-152 limits assumed, change not shown): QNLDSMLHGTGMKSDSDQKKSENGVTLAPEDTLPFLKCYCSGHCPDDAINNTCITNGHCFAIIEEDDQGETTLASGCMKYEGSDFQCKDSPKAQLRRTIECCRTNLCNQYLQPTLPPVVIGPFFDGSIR

B1: SC91.149 (antibody, V domains shown)
VH: QVQLLQPGAELVKPGSSVKVSCKASGYTFTNYWMQWVKQRPGQGLEWIGEIDPSDTYTLYNQKFKGKATLTVDTSSSTAYMQLSSLTSEDSAVYYCARFGYYVDYWGQGTTLTVSS
VL: DVVMTQTPLSLPVSLGDQASISCRSSQSLVHSTGNTYFHWYLQKPGQSPELLIYKVSNRFSGVPDRFRGSGSGTDFTLKISRVEAEDLGVYFCSQSTHVPFTFGSGTKLEIK
As for B1, the ELISA is 0.066.

B2: SC91.187 (antibody, V domains shown)
VH: QVQLQQPGPEFVKPGASVKLSCKASGYTFTSYWVQWVKQRPGQGLEWIGEIDPSDNYTLYNQNFKGKATLTVDTSSSTAYMQLSSLTSEDSAVYYCARFGFYVDYWGQGTTLTVSS
VL: DVVMTQTPLSLPVSLGEQASISCRSSQSLVHSTGNTYLHWYLQKPGQSPKLLIYKVSNRFSGVPDRFSGSGSGTDFTLKISRVEAEDLGVYFCSQSTHVPFTFGSGTKLEIK
Regarding B2, the ELISA was 0.092.

B3: SC91.172 (antibody, V domains shown)
VH: QVQLQQPGADLVKPGTSVKLSCKASGYTFTSYWMQWVKQRPGQGLEWIGEIDPSDTYTMYNQKFKGKATLTVDTSSSTAYMQLSSLTSEDSAVYYCARFGYYVDYWGQGTTLTVSS
VL: DVVMTQTPLSLPVSLGDQASISCRSSQSLVHSTGNTYLHWYLQKAGQSPKLLIYKVSNRFSGVPDRFSGSGSGTDFTLKISRVEAEDLGVYFCSQSTHVPFTFGSGTKLEIK
For the molecule B3, the ELISA worked out at 0.062.

B4: SC91.111 (antibody, V domains shown)
VH: QIQLVQSGPELKKPGETVKISCKASGYTLTTYGMNWVKQAPGKGLKWMGWINTYSGVPAYADDFKGRFAFSLETSASTAYLQINNFKNEDTATYFCARSELRNWYFDVWGTGTTVTVSS
VL: SFVMTQTPKFLLVSAGDRVTITCKASQNMGHNVAWYQQKPGQSPKLLIYYASNRYTGVPDRFTGSGYGTDFTFTISTVQAEDLAVYFCQQDYSSPFTFGSGTKLEIK
B4: the ELISA was 0.077.

B5: SC91.160 (antibody, V domains shown)
VH: QIQLVQSGPELKKPGETVKISCKASGYTFTTYGMNWVKQAPGKGLKWMGWINTYSGVPSSADDFKGRFAFSLETSASTAYLLINNLKNEDTATYFCARSELRNWYFDVWGTGTTVTVSS
VL: SFVMTQTPKFLLVSAGDRVTITCKASQNMGHDVAWYQQKPGQSPKLLIYSASNRYTGVPDRFTGSGYGTDFTFTISTVQAEDLAVYFCQQDYSSPFTFGSGTKLEMK
On to B5, for which the ELISA was 0.061.

B6: SC91.155 (antibody, V domains shown)
VH: QIQLVQSGPELKKPGETVKISCKASGYTFTTYGMNWVKQAPGKGLKWMGWINSYSGVPAYADDFKGRFAFSLETFASTAYLQINNLRDEDTATYFCARSELRNWYFDVWGTGTTVTVSS
VL: SFVMTQTPKFLLVSAGDRVTITCKASQNLGNDVAWYQQKPGQSPRLLIYFASNRYTGVPDRFTGSGYGTDFTFTISTVQAEDLAVYFCQQDYSSPFTFGSGTKLEIK
On to B6, for which the ELISA worked out at 0.059.
